Measurements from article PMC5324736.
Where two headings read alike, the source gives them in different places.

Experiments:
[1] = target: eIF2•GDPNP•Met-tRNAi ternary complex; test: native gel or EMSA
[2] = target: eIF2•GDPNP•Met-tRNAi ternary complex; test: native gel or EMSA; remark: listed apart in the source

Substance	Kd [1]	Kd [2]
40S ribosomal subunit, anion exchange column preparation (complex)	14 nM	< 1 nM
40S ribosomal subunit, sucrose cushion preparation (complex)	13 nM	< 1 nM
